Columns and labels:
peptide on HLA-A*02:01 [1] = biological target: T1, peptide on HLA-A*02:01 (human); experiment: cytokine release
T1 peptide: KLLEIAANC

[2] = biological target: T2, MCPyV T antigen homolog (C9A of …) peptide on HLA-A*02:01 (human); experiment: cytokine release
T2 peptide: KLLEIAPNA

[3] = biological target: T3, MCPyV Large-T sequence variant peptide on HLA-A*02:01 (human); experiment: cytokine release
T3 peptide: KLLEISPNC

[4] = biological target: T4, MCPyV Large-T sequence variant peptide on HLA-A*02:01 (human); experiment: cytokine release
T4 peptide: KLLEITPNC

peptide on HLA-A*02:01 [5] = biological target: T5, peptide on HLA-A*02:01 (human); experiment: cytokine release
T5 peptide: KALEIAPNC

[6] = biological target: T6, Merkel cell polyomavirus (MCPyV) T antigen (Large-T antigen) peptide on HLA-A*02:01 (human); experiment: multimer staining
T6 peptide: KLLEIAPNC

[7] = biological target: T6, Merkel cell polyomavirus (MCPyV) T …; experiment: killing
peptide on HLA-A*02:01 [8] = biological target: T7, peptide on HLA-A*02:01 (human); experiment: cytokine release
T7 peptide: ALLEIAPNC

Measured: binding result

B1: TCR1007 (TCR, V domains shown)
Valpha: QQQVKQSPQSLIVQKGGISIINCAYENTAFDYFPWYQQFPGKGPALLIAIRPDVSEKKEGRFTISFNKSAKQFSLHIMDSQPGDSATYFCAVPNTGNQFYFGTGTSLTVIP
Vbeta: GAGVSQSPRYKVAKRGQDVALRCDPISGHVSLFWYQQALGQGPEFLTYFQNEAQLDKSGLPSDRFFAERPEGSVSTLKIQRTQQEDSAVYLCASSLIAGLSYEQYFGPGTRLTVT
not listed: [7] | peptide on HLA-A*02:01 [8]
recognises: all other assays above

B2: TCR1072 (TCR, V domains shown)
Valpha: RKEVEQDPGPFNVPEGATVAFNCTYSNSASQSFFWYRQDCRKEPKLLMSVYSSGNEDGRFTAQLNRASQYISLLIRDSKLSDSATYLCVVTGTGGFKTIFGAGTRLFVKA
Vbeta: GEEVAQTPKHLVRGEGQKAKLYCAPIKGHSYVFWYQQVLKNEFKFLISFQNENVFDETGMPKERFSAKCLPNSPCSLEIQATKLEDSAVYFCASSSMSIAAGNTGELFFGEGSRLTVL
recognises: [7] | [2] | peptide on HLA-A*02:01 [8]

— US20210252057A1 (published 2021)
